Experimental data from paper PMC6868365 (Nucleic Acids Research, 2019).

Columns and labels:
[1] = biological target: T1, DnaA Q208A (Escherichia coli, UniProt P03004 1-467, Q208A); assay: native gel or EMSA
T1 sequence (looked up): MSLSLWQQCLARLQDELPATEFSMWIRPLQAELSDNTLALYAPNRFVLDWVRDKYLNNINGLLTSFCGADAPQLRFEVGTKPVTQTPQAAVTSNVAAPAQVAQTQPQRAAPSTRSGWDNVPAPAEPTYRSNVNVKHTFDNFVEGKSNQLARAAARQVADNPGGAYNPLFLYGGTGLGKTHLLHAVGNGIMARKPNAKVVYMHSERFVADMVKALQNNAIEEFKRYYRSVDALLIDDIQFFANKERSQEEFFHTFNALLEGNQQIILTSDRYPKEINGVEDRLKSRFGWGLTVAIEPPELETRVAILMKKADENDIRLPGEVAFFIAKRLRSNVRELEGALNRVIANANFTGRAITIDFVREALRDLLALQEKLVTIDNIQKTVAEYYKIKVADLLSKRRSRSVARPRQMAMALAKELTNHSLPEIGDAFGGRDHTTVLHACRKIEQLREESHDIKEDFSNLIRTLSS

[2] = biological target: T2, DnaA L290A (Escherichia coli, UniProt P03004 1-467, L290A); assay: native gel or EMSA
T2 sequence (looked up): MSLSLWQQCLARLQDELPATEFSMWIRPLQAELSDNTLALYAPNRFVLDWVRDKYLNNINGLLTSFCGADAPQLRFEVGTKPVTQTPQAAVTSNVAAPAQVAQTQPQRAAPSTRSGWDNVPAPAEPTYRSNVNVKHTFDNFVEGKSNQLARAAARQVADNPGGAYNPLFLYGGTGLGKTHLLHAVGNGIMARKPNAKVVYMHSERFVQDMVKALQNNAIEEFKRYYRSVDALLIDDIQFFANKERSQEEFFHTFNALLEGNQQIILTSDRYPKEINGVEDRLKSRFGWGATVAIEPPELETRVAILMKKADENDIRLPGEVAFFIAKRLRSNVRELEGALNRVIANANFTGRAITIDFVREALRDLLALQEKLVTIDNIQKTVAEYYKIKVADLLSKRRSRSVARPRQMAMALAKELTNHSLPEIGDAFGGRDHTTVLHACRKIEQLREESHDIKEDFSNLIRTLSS

binding result [1]: binds | binding result [2]: binds
B1: DiaA (DnaA initiator-associating protein) (natural protein, Escherichia coli, UniProt P66817 1-196, looked up)
chain: MQERIKACFTESIQTQIAAAEALPDAISRAAMTLVQSLLNGNKILCCGNGTSAANAQHFAASMINRFETERPSLPAIALNTDNVVLTAIANDRLHDEVYAKQVRALGHAGDVLLAISTRGNSRDIVKAVEAAVTRDMTIVALTGYDGGELAGLLGPQDVEIRIPSHRSARIQEMHMLTVNCLCDLIDNTLFPHQDD
